Data reported in the supplement of paper PMC9112550, “Optimization of the antimicrobial peptide Bac7 by deep mutational scanning” (BMC Biology, 2022).

Tested on: Escherichia coli TOP10
Assay: shrunken log2 fold change of peptide-encoding DNA abundance (4.5 h post-induction vs induction); higher = less antimicrobial activity (less host growth inhibition)
Details: time post-induction: 4.5 h; library: site-saturation at positions 5, 18, 19, 20
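Further: peptides expressed intracellularly from a pBAD plasmid library in pooled LB shake-flask culture, induced with 0.3% L-arabinose, DNA abundance read by NGS, three biological replicates, DESeq2 with apeglm shrinkage.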

Sequence	shrunken log2 fold change
RRIRFRPPRLPRPRPRPVEKPRP	0.149
RRIRIRPPRLPRPRPRPILYPRP	-0.357
RRIRSRPPRLPRPRPRPYYKPRP	-0.892
RRIRQRPPRLPRPRPRPCDWPRP	0.202
RRIRWRPPRLPRPRPRPYDYPRP	-0.262
RRIRMRPPRLPRPRPRPDFFPRP	0.29
RRIRPRPPRLPRPRPRPYLDPRP	-0.908
RRIRRRPPRLPRPRPRPFDRPRP	0.542
RRIRCRPPRLPRPRPRPFCAPRP	-0.00432
RRIRVRPPRLPRPRPRPTVFPRP	-0.0187
RRIRVRPPRLPRPRPRPNHTPRP	-0.402
RRIRCRPPRLPRPRPRPFMRPRP	0.0501
RRIRKRPPRLPRPRPRPNVTPRP	0.138
RRIRCRPPRLPRPRPRPTDVPRP	-0.461
RRIRERPPRLPRPRPRPAAGPRP	0.315
RRIRYRPPRLPRPRPRPVNDPRP	-0.24
RRIRMRPPRLPRPRPRPKINPRP	-0.194
RRIRHRPPRLPRPRPRPKSIPRP	-0.136
RRIRNRPPRLPRPRPRPIFAPRP	0.111
RRIRGRPPRLPRPRPRPDYMPRP	-0.0973
RRIRWRPPRLPRPRPRPKHGPRP	0.186
RRIRIRPPRLPRPRPRPNMMPRP	-0.298
RRIRNRPPRLPRPRPRPPFLPRP	-0.0418
RRIRDRPPRLPRPRPRPKRWPRP	0.0314
RRIRMRPPRLPRPRPRPICQPRP	3.43

Sequence	shrunken log2 fold change
RRIRERPPRLPRPRPRPTSEPRP	0.0668
RRIRQRPPRLPRPRPRPNCIPRP	0.133
RRIRHRPPRLPRPRPRPEVFPRP	-0.0194
RRIRPRPPRLPRPRPRPQSYPRP	-0.202
RRIRKRPPRLPRPRPRPWRCPRP	-0.0463
RRIRPRPPRLPRPRPRPFFLPRP	-0.041
RRIRMRPPRLPRPRPRPRGPPRP	0.684
RRIRKRPPRLPRPRPRPKFHPRP	0.161
RRIRERPPRLPRPRPRPIWNPRP	-0.0842
RRIRQRPPRLPRPRPRPRLIPRP	-0.076
RRIRYRPPRLPRPRPRPNQGPRP	-0.00893
RRIRERPPRLPRPRPRPQRQPRP	0.0791
RRIRVRPPRLPRPRPRPRCKPRP	0.039
RRIRDRPPRLPRPRPRPAEWPRP	0.0244
RRIRHRPPRLPRPRPRPQDFPRP	0.0261
RRIRYRPPRLPRPRPRPHQWPRP	-0.649
RRIRGRPPRLPRPRPRPCCFPRP	0.773
RRIRCRPPRLPRPRPRPVDNPRP	-0.00721
RRIRWRPPRLPRPRPRPKDCPRP	-0.0724
RRIRMRPPRLPRPRPRPHGYPRP	0.185
RRIRTRPPRLPRPRPRPMPKPRP	0.116
RRIRRRPPRLPRPRPRPFHRPRP	0.0574
RRIRFRPPRLPRPRPRPHSRPRP	-0.112
RRIRERPPRLPRPRPRPQLDPRP	0.115
RRIRVRPPRLPRPRPRPVIVPRP	-0.349

Sequence	shrunken log2 fold change
RRIRTRPPRLPRPRPRPVYLPRP	-1.16
RRIRCRPPRLPRPRPRPFVGPRP	-0.315
RRIRWRPPRLPRPRPRPRAIPRP	0.539
RRIRCRPPRLPRPRPRPCWHPRP	-0.169
RRIRLRPPRLPRPRPRPPLAPRP	0.519
RRIRFRPPRLPRPRPRPIMAPRP	-0.0564
RRIRARPPRLPRPRPRPWDYPRP	0.00145
RRIRLRPPRLPRPRPRPYKHPRP	-0.619
RRIRPRPPRLPRPRPRPCKDPRP	-0.374
RRIRCRPPRLPRPRPRPGCMPRP	0.00195
RRIRPRPPRLPRPRPRPTLIPRP	-0.169
RRIRVRPPRLPRPRPRPQRVPRP	0.0942
RRIRVRPPRLPRPRPRPQMEPRP	-0.0589
RRIRPRPPRLPRPRPRPGDGPRP	0.979
RRIRARPPRLPRPRPRPNTNPRP	-0.0214
RRIRVRPPRLPRPRPRPNYGPRP	-0.387
RRIRGRPPRLPRPRPRPPLRPRP	0.796
RRIRIRPPRLPRPRPRPNCHPRP	-0.232
RRIRIRPPRLPRPRPRPGELPRP	-0.0665
RRIRKRPPRLPRPRPRPDFNPRP	0.0068
RRIRPRPPRLPRPRPRPRVAPRP	0.743
RRIRLRPPRLPRPRPRPKPRPRP	0.729
RRIRMRPPRLPRPRPRPQYAPRP	0.0122
RRIRHRPPRLPRPRPRPWVHPRP	-0.179
RRIRQRPPRLPRPRPRPYLYPRP	-0.838

Sequence	shrunken log2 fold change
RRIRIRPPRLPRPRPRPHGGPRP	-0.0479
RRIRFRPPRLPRPRPRPSNPPRP	-0.674
RRIRNRPPRLPRPRPRPFMWPRP	-0.134
RRIRWRPPRLPRPRPRPPWGPRP	0.483
RRIRCRPPRLPRPRPRPIMAPRP	-0.236
RRIRIRPPRLPRPRPRPRMDPRP	-0.389
RRIRNRPPRLPRPRPRPHGYPRP	-0.066
RRIRVRPPRLPRPRPRPIYGPRP	-0.0564
RRIRLRPPRLPRPRPRPMLIPRP	-0.0317
RRIRDRPPRLPRPRPRPHVFPRP	-0.0358
RRIRGRPPRLPRPRPRPDLGPRP	0.688
RRIRLRPPRLPRPRPRPGYTPRP	-0.349
RRIRMRPPRLPRPRPRPKDCPRP	-0.0772
RRIRWRPPRLPRPRPRPFGCPRP	-0.274
RRIRYRPPRLPRPRPRPDIFPRP	-0.032
RRIRLRPPRLPRPRPRPWVLPRP	-0.0289
RRIRCRPPRLPRPRPRPVSNPRP	0.0201
RRIRDRPPRLPRPRPRPCKFPRP	0.0155
RRIRERPPRLPRPRPRPLDRPRP	0.0551
RRIRARPPRLPRPRPRPATTPRP	0.681
RRIRIRPPRLPRPRPRPHVHPRP	-0.165
RRIRLRPPRLPRPRPRPCGQPRP	-0.0417
RRIRWRPPRLPRPRPRPWEYPRP	-0.0716
RRIRDRPPRLPRPRPRPEYWPRP	0.0559
RRIRTRPPRLPRPRPRPFVDPRP	-0.0538

Sequence	shrunken log2 fold change
RRIRKRPPRLPRPRPRPLYRPRP	-0.0664
RRIRKRPPRLPRPRPRPACEPRP	0.168
RRIRLRPPRLPRPRPRPQGQPRP	-0.0201
RRIRFRPPRLPRPRPRPPASPRP	0.574
RRIRARPPRLPRPRPRPYIFPRP	-0.277
RRIRFRPPRLPRPRPRPQMKPRP	-0.41
RRIRKRPPRLPRPRPRPVPIPRP	0.177
RRIRRRPPRLPRPRPRPGLMPRP	0.342
RRIRMRPPRLPRPRPRPCTNPRP	0.0685
RRIRSRPPRLPRPRPRPYDKPRP	0.0507
RRIRNRPPRLPRPRPRPHKSPRP	-0.298
RRIRCRPPRLPRPRPRPPSHPRP	-0.0142
RRIRIRPPRLPRPRPRPICCPRP	-0.107
RRIRTRPPRLPRPRPRPPNIPRP	-0.355
RRIRMRPPRLPRPRPRPAEFPRP	1.15
RRIRNRPPRLPRPRPRPYQIPRP	-0.0282
RRIRCRPPRLPRPRPRPLHTPRP	-0.0899
RRIRHRPPRLPRPRPRPNTLPRP	-0.0867
RRIRARPPRLPRPRPRPARWPRP	0.95
RRIRRRPPRLPRPRPRPSSNPRP	-0.148
RRIRVRPPRLPRPRPRPKQAPRP	0.243
RRIRNRPPRLPRPRPRPAREPRP	0.191
RRIRDRPPRLPRPRPRPGCMPRP	0.206
RRIRSRPPRLPRPRPRPIEVPRP	0.0392
RRIRTRPPRLPRPRPRPINNPRP	-0.793
